T1: His6-Dsn1 (subunit of the recombinant Mis12 complex) (human, UniProt Q9H410 1-356)
T1 sequence (looked up): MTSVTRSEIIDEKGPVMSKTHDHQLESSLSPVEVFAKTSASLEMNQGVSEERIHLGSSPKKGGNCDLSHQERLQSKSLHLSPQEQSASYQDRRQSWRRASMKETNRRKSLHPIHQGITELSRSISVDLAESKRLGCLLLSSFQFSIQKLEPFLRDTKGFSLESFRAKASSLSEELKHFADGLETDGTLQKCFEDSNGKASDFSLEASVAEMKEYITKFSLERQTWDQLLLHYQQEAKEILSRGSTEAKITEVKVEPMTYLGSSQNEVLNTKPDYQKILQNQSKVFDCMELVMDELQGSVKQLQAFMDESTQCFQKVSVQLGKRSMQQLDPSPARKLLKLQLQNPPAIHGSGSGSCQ


What follows are binders tested against T1, His6-Dsn1 (subunit of the recombinant …) (assay: co-sedimentation).

| binding result | Binder |
| --- | --- |
| binds | Nsl1 (subunit of the recombinant Mis12 complex) (natural protein, human, UniProt Q96IY1 1-281, looked up) MAGSPELVVLDPPWDKELAAGTESQALVSATPREDFRVRCTSKRAVTEMLQLCGRFVQKLGDALPEEIREPALRDAQWTFESAVQENISINGQAWQEASDNCFMDSDIKVLEDQFDEIIVDIATKRKQYPRKILECVIKTIKAKQEILKQYHPVVHPLDLKYDPDPAPHMENLKCRGETVAKEISEAMKSLPALIEQGEGFSQVLRMQPVIHLQRIHQEVFSSCHRKPDAKPENFITQIETTPTETASRKTSDMVLKRKQTKDCPQRKWYPLRPKKINLDT |
| binds | Nnf1 (subunit of the recombinant Mis12 complex) (natural protein, human, UniProt Q6P1K2 1-205, looked up) MAEASSANLGSGCEEKRHEGSSSESVPPGTTISRVKLLDTMVDTFLQKLVAAGSYQRFTDCYKCFYQLQPAMTQQIYDKFIAQLQTSIREEISDIKEEGNLEAVLNALDKIVEEGKVRKEPAWRPSGIPEKDLHSVMAPYFLQQRDTLRRHVQKQEAENQQLADAVLAGRRQVEELQLQVQAQQQAWQALHREQRELVAVLREPE |
| binds | Mis12 (subunit of the recombinant Mis12 complex) (natural protein, human, UniProt Q9H081 1-205, looked up) MSVDPMTYEAQFFGFTPQTCMLRIYIAFQDYLFEVMQAVEQVILKKLDGIPDCDISPVQIRKCTEKFLCFMKGHFDNLFSKMEQLFLQLILRIPSNILLPEDKCKETPYSEEDFQHLQKEIEQLQEKYKTELCTKQALLAELEEQKIVQAKLKQTLTFFDELHNVGRDHGTSDFRESLVSLVQNSRKLQNIRDNVEKESKRLKIS |
